Assay results published in publication PMC11301380, “Non-invasive strategy: Developing a topical IL-4Rα-specific nanobody for the treatment of allergic airway diseases” (Materials Today Bio, 2024).
Substitutions are numbered along the chain they refer to. Names may count otherwise.

B1: nanobody H5 (VHH)
VHH: QVQLVESGGGSVQAGGSLRLSCAASGSISSITYLGWFRQAPGKEREGVAALSTSSGTTYYADSVKGRFTVSLDNAKNTVYLQMNSLKPEDTALYYCAAADKGREYTLARAKYWYWGQGTQVTVSA
notes: synthetic nanobody selected from a library on the convex scaffold (pRDV containing Sb-convex, Addgene 132696) with randomised CDR3; also called H5^WT; H5 monomer; source: E. coli BL21 (pSBinit), periplasmic extract, purified (TALON Superflow)
B2: H5^A110Y (VHH)
VHH: B1 VHH with A110Y
notes: also called H5 mutant A110Y; source: E. coli BL21 (pSBinit), periplasmic extract, purified (TALON Superflow)
B3: H5^E104R (VHH)
VHH: B1 VHH with E104R
notes: also called H5 mutant E104R; source: E. coli BL21 (pSBinit), periplasmic extract, purified (TALON Superflow)

Target: T1, extracellular domain of human IL-4Rα (human, UniProt P24394, biotin (Biotin-labeled IL-4Rα on the Biacore sensor chip))
T1 construct: interleukin-4 receptor alpha, human, extracellular domain; Source and limits of the recombinant protein may stand in the materials list of the supplement; Biotin labelling is told only for the Biacore T200 experiment; also called IL-4 Receptor alpha
Assay: SPR; Biacore T200; biotin-labeled IL-4Rα immobilised on the sensor chip (BR100531); nanobody 15.625-2000 nM; running buffer PBS pH 7.4; 1:1 kinetic binding model
Settings: both partners purified

T1 sequence (P24394 26-232): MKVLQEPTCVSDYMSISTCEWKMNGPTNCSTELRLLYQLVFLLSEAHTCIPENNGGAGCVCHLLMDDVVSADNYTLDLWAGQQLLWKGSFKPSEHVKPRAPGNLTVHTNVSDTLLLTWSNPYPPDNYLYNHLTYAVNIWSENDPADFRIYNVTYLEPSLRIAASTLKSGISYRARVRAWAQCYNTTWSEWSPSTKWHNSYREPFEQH

| Kd | Binder |
| --- | --- |
| 1420 nM | B1 |
| 708 nM | B2 |
| 1030 nM | B3 |
